In paper doi:10.1101/2023.10.05.561050 (bioRxiv, 2023):
Values belong to the molecule of their own block, whether it stands above or below them.

What was measured:
Experiment in all cases: PIE-FCCS
[1] = target: Myr-GCN4-EGFRk-FP (multimer control)
[2] = target: Myr-GCN4-FP (dimer control)
PIE-FCCS = target: the molecule itself

fc (median cross-correlation value) [1]: 0.23
Molecule: Myr-GCN4-EGFRk-FP (multimer control)

fc (median cross-correlation value) [2]: 0.14
Molecule: Myr-GCN4-FP (dimer control)

B1: Myr-ICD-ΔS (EphA2 intracellular domain without the SAM domain, AA 559-882, with a membrane localization sequence) (domain or fragment)
chain: HRRRKNQRARQSPEDVYFSKSEQLKPLKTYVDPHTYEDPNQAVLKFTTEIHPSCVTRQKVIGAGEFGEVYKGMLKTSSGKKEVPVAIKTLKAGYTEKQRVDFLGEAGIMGQFSHHNIIRLEGVISKYKPMMIITEYMENGALDKFLREKDGEFSVLQLVGMLRGIAAGMKYLANMNYVHRDLAARNILVNSNLVCKVSDFGLSRVLEDDPEATYTTSGGKIPIRWTAPEAISYRKFTSASDVWSFGIVMWEVMTYGERPYWELSNHEVMKAINDGFRLPTPMDCPSAIYQLMMQCWQQERARRPKFADIVSILDKLIRAPDSLK
modifications: N-terminal myristoylation of the c-Src-derived peptide
stoichiometry N (PIE-FCCS): 2
